For one molecule, binding result and Kd results are on record in patent US20220119507A1 (OHEALTH BIOPHARMACEUTICAL SUZHOU, published 2022).

For orientation: Kd means the constant that tells how readily two partners part at equilibrium.

The target of test [1] is T1, fragment of PTX3 recombinant protein listed as SEQ ID NO:6 (human).
T1 peptide: ATDVLNKTI
Kind of test: hybridoma screening.

Test [2] has as its target T2, fragment of PTX3 recombinant protein listed as SEQ ID NO:7 (human).
T2 peptide: VLNKTILFS
Kind of test: hybridoma screening.

Test [3] addresses T3, fragment of PTX3 recombinant protein listed as SEQ ID NO:8 (human).
T3 peptide: KTILFSYGT
Put plainly: hybridoma screening.

Test [4] addresses T4, fragment of PTX3 recombinant protein listed as SEQ ID NO:9 (human).
T4 peptide: LFSYGTKRN
Kind of test: hybridoma screening.

Test [5] concerns the target T5, fragment of PTX3 recombinant protein listed as SEQ ID NO:10 (human).
T5 peptide: YGTKRNPYEI
Put plainly: hybridoma screening.

For test [6], the target named is T6, amino acid sequence listed as SEQ ID NO:11 (203th to 217th amino acid residues of PTX3 recombinant protein) (human).
T6 peptide: RLESFSACIWVKATD
Put plainly: hybridoma screening.

Test [7] concerns the target T7, RI37, fragment of PTX3 recombinant protein listed as SEQ ID NO:12 (200th to 236th amino acid residues) (human).
T7 peptide: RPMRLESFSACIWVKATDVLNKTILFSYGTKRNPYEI
Kind of test: hybridoma screening.

Test [8] concerns the target T8, fragment of PTX3 recombinant protein listed as SEQ ID NO:1 (human).
T8 peptide: RPMRLESFS
Kind of test: hybridoma screening.

Test [9] addresses T9, fragment of PTX3 recombinant protein listed as SEQ ID NO:2 (human).
T9 peptide: RLESFSACI
Put plainly: hybridoma screening.

The target of test [10] is T10, fragment of PTX3 recombinant protein listed as SEQ ID NO:5 (human).
T10 peptide: WVKATDVLN
Kind of test: ELISA on coated fragments SEQ ID NOs:1 to 10 (FIG. 4).

Test [11] deals with T11, fragment of PTX3 recombinant protein listed as SEQ ID NO:3 (human).
T11 peptide: SFSACIWVK
The description is as above.

For test [12], the target named is T12, fragment of PTX3 recombinant protein listed as SEQ ID NO:4 (human).
T12 peptide: ACIWVKATD
Described as above.

The target in test [13] is PTX3 recombinant protein (undenatured amino acid sequence listed as SEQ ID NO:14) (human, UniProt P26022 19-381). Put plainly: ELISA, PTX3 (SEQ ID NO:14) coated at 10 ug/mL, antibody 0.01 to 1000 ng/mL (FIG. 2). As for the experimental part: Firstly, 10 μg/mL of PTX3 recombinant protein (representing a undenatured amino acid sequence listed as SEQ ID NO:14, dissolved in pH 7.2 PBS) was coated onto each well of a 96-well cell culture plate (Product No. 9018, Corning Costar), and reacted at 4° C. overnight. Next, the blocking solution (containing 3% BSA in PBS) was added into wells, and blocked for 1 hour under room temperature (i.e. 4° C. to 40° C.). After removing the blocking solution, each well was rinsed with PBS, and then reacted with a primary antibody for 1 hour under room temperature (i.e. 4° C. to 40° C.), in which the primary antibody was PTX3 mAb of EXAMPLE 1 serially diluted in a concentration range of 0.01 ng/mL to 1000 ng/mL. And then, each well was rinsed several times with PBST (i.e. PBS with Tween 20) for removing unconjugated PTX3 mAb, and reacted with secondary antibody under room temperature (i.e. 4° C. to 40° C.), in which the secondary antibody was anti-mouse IgG-HRP. Afterward, TMB was added into each well for reaction over a time period, and then added with 0.1 M of H₂SO₄ solution for 10 minutes to stop the reaction. Subsequently, the absorbance at 450 nm of each well was measured by commercially available ELISA reader, and the results were shown in FIG. 2. Each value was obtained in quadruplicate. […]
Background: An ELISA detects its analyte on a solid surface through an enzyme-linked reagent.

Sequence of PTX3 recombinant protein (undenatured amino acid sequence listed as SEQ ID NO:14) (P26022 19-381 limits assumed): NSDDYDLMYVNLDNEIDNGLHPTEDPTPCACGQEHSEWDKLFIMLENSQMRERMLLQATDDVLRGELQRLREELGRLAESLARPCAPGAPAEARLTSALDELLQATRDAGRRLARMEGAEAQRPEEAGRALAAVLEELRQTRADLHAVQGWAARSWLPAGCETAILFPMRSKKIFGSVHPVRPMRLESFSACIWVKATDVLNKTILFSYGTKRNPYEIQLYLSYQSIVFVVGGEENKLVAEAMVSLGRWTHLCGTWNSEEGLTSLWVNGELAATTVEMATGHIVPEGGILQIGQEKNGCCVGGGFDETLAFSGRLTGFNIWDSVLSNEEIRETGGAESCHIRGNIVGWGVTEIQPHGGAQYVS

B1: PTX3 monoclonal antibody of EXAMPLE 1 (antibody, V domains shown)
VH: EVQLQQSGAELVKPGASVKLSCTASDFNIKHTYLHWVLQRPEQGLEWIGRIDPANGDTKYDPKFQGKATITADTSSNTAYLHLSSLTSEDTAVYYCARVTTVVGFDYWGQGTTLTVSS
VL: QIVLTQSPAIMSTSLGERVTMTCTASSSVISTYLNWYQQKPGSSPKLWIYSTSNLASGVPARFSGSGSGTSYSLTISSMEAEDAATYFCHQFQRSPLTFGAGTKLELKR
notes: also called PTX3 mAb
Turning to B1, the binding result in [1], in [2], in test [3], in test [4], in test [5] and in test [6] was “binds” each time. The binding result in [7], in [8], in [9], in test [10], in test [11] and in [12] was “binds” in each case. In addition, the Kd in test [13] was 0.085 nM.
